Laboratory results: patent US20150174202A1, “Methods and Compositions for Modulating Beta Cell Proliferation” (The Board of Trustees of the Leland Stanford Junior …, priority 2011, published 2015)
Entries after “also recorded” stand apart in the source; their conditions may differ.

Legend:
Type in all cases: cell-based
Ezh2 = experiment: Ezh2/Ezh1 expression in cultured mouse islets (real-time RT-PCR, western blot); conditions: juvenile mouse islets exposed to insulin or prolactin, 2 days
Procedure: Mouse pancreatic islets were purified as described in Chen et al. (2009) Genes Dev. 23, 975-985 and used immediately for assays described in the text. To study Ezh2 induction in cultured islets exposed to mitogens, freshly isolated islets from 2-3-week old, and 7-12-month old C57BL/6 mice were recovered and equilibrated overnight at 37° C., 5% CO2 in RPMI-1640 medium supplemented with 0.5% fetal bovine serum (FBS), 0.2% bovine albumin (BSA) and 2% penicillin/streptomycin. […] Immunostaining of BrdU and insulin was performed on processed islets, and β-cell proliferation rate was determined by quantifying percentage of insulin+ cells with BrdU+. […] RNA concentration was measured with a RiboGreen RNA quantification assay (Invitrogen). One-step quantitative RT-PCR was performed and analysed using an ABI Prism 7300 detection system (Applied Biosystems) with TaqMan one-step RTPCR Master Mix Reagents and appropriate amounts (10-100 ng) of islet total RNA as the template. We calculated the ratio of mRNA for the gene of interest to the amount of internal control mRNA of peptidylprolyl isomerase A (cyclophilin A, PPIA), and then normalized the ratio for each gene to its median. […]

PDGFRA = experiment: Pdgfra expression in cultured adult mouse islets exposed to Wnt3a or R-Spondin; conditions: isolated adult mouse islets (4-5 months of age) in culture
Description: In diverse tissues, including the pancreas, Wnt signaling activates expression of Axin2, a negative regulator of the pathway. […] This spatially and temporally restricted expression pattern is reminiscent of declining Pdgfra, Pdgfrab, and Ezh2 levels and β-cell proliferation in animals (FIG. 22B-D, Chen et al 2009, 2011). Likewise, in mice harboring a ‘Top-Gal’ synthetic reporter gene of Wnt signaling activity, β-galactosidase reporter expression declines in islet β-cells with age (FIG. 22E-G). Thus, changes in Wnt signaling underlie age-dependent reductions of Pdgfr expression and β-cell PDGF signaling competence in β-cells. Consistent with this, culture of isolated adult mouse islets (4-5 months of age) with purified Wnt3a or the Wnt agonist R-Spondin increased Pdgfra mRNA expression. As described above, Pdgfra signaling induced Ezh2 expression in islets. To assess the function of Pdgfra induced by R-Spondin, R-Spondin was added to adult mouse islets, followed by addition of purified PDGF-AA (100 ng/ml), and Ezh2 mRNA levels were then measured.

PDGFRα and PDGFRβ = experiment: PDGFR mRNA in cultured adult human islets exposed to Wnt3a or R-Spondin
[1] = adult human islets (mean age >40 years), exposed for two days

Row | Molecule | Ezh2 mRNA levels after mitogen exposure (Ezh2) | Pdgfra mRNA expression (PDGFRA) | mRNA levels encoding PDGFRα (PDGFRα and PDGFRβ; [1]) | mRNA levels encoding PDGFRβ (PDGFRα and PDGFRβ; [1]) | dose dependence of induction of PDGFRA and PDGFRB mRNA (PDGFRα and PDGFRβ; cultured adult human islets)
1 | prolactin (protein, UniProt P01236 29-227, looked up, mitogen capable of promoting β-cell proliferation) Prolactin: LPICPGGAARCQVTLRDLFDRAVVLSHYIHNLSSEMFSEFDKRYTHGRGFITKAINSCHTSSLATPEDKEQAQQMNQKDFLSLIVSILRSWNEPLYHLVTEVRGMQEAPEAILSKAVEIEEQTKRLLEGMELIVSQVHPETKENEIYPVWSGLPSLQMADEESRLSAYYNLLHCLRRDSHKIDNYLKLLKCRIIHNNNC | did not detectably alter; also recorded: did not induce | – | – | – | –
2 | Wnt3a: purified Wnt3a protein (protein, UniProt P56704 19-352, looked up) Protein Wnt-3a: SYPIWWSLAVGPQYSSLGSQPILCASIPGLVPKQLRFCRNYVEIMPSVAEGIKIGIQECQHQFRGRRWNCTTVHDSLAIFGPVLDKATRESAFVHAIASAGVAFAVTRSCAEGTAAICGCSSRHQGSPGKGWKWGGCSEDIEFGGMVSREFADARENRPDARSAMNRHNNEAGRQAIASHMHLKCKCHGLSGSCEVKTCWWSQPDFRAIGDFLKDKYDSASEMVVEKHRESRGWVETLRPRYTYFKVPTERDLVYYEASPNFCEPNPETGSFGTRDRTCNVSSHGIDGCDLLCCGRGHNARAERRREKCRCVFHWCCYVSCQECTRVYDVHTCK | – | increased | increased | increased | depends on the dose
